From patent EP1496124A1 (Oklahoma Medical Research Foundation, dated 2005) come the findings set out here.

The term Ki denotes a measure of affinity in units of concentration, obtained from inhibition or displacement.

Ends that are not written are not given here.

In experiment [1] the target is M2pd (modified M2 containing amino acids from Ala-8P to Ala326) (human) (UniProt P56817). Description: cell-based or functional assay.
Experiment [2] concerns the target T1, recombinant memapsin 2 (human, UniProt P56817 14-454, limits assumed).
T1 construct: also called M2; beta-secretase
In words: enzyme inhibition with a synthetic fluorogenic peptide substrate.

In experiment [3] the target is T1, recombinant memapsin 2. In words: Ki as stated in the crystallisation example; assay not described there.
The target in experiment [4] is T1, recombinant memapsin 2. Description: comparison of inhibition constants.

T1 sequence (P56817 14-454 limits assumed): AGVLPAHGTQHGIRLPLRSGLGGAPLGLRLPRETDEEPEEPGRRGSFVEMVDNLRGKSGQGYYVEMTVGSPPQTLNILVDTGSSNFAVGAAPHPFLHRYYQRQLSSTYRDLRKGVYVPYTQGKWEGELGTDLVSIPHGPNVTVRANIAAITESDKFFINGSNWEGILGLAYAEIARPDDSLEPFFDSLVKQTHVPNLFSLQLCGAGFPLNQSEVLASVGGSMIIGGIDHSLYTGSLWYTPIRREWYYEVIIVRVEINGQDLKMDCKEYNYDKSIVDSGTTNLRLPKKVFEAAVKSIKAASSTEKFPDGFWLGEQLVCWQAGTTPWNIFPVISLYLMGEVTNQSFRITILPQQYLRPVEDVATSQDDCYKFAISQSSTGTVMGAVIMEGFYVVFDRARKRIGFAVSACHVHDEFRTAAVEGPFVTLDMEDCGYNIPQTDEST
Sequence of M2pd (modified M2 containing amino acids from Ala-8P to Ala326) (human) (P56817 22-501 limits assumed): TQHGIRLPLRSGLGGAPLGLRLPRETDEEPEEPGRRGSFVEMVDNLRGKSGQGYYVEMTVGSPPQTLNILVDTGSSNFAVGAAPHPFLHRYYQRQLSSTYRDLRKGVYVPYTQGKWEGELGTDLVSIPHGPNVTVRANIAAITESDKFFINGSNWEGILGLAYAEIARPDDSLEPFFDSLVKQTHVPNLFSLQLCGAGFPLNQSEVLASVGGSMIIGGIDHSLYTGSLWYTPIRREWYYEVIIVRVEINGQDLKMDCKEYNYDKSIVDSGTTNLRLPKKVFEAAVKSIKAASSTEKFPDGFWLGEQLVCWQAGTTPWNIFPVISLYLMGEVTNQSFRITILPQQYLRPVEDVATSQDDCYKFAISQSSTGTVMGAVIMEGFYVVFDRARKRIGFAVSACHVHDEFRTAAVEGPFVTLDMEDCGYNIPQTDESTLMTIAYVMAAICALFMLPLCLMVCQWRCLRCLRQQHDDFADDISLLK

In experiment [1], Pepstatin A (peptide) showed an IC50 (inhibition of enzyme activity) of 300000 nM.

With OM99-1 (peptide), the Ki with recombinant memapsin 2 [2] came to 30 nM.

B1: OM99-2 (peptide)
peptide: EVNLAAEF
modifications: also: Leu4-Ala5 peptide bond replaced by hydroxyethylene isostere -CH(OH)-CH2-
notes: Synthetic substrate analogue based on the beta-secretase site of Swedish mutant APP
Regarding B1, the Ki in the experiment with recombinant memapsin 2 [3] was found to be 10 nM.

As for VNLAAEF (also: Leu3-Ala4 bond replaced by hydroxyethylene isostere -CH(OH)-CH2-) [OM99-2 with P4 Glu absent], the fold increase in Ki against OM99-2 with recombinant memapsin 2 [4] was found to be 10 fold.
